Legend:
[1] = target: T1, recombinant soluble CD4 (rsCD4) (UniProt P01730 26-396, limits assumed); assay: ELISA, rsCD4 coated at 0.25 µg/ml
T1 construct: Bought reagent coated on ELISA plates at 0.25 µg/ml; also called solid-phase rsCD4
Description: Tween® 20 in PBS. Various dilutions of the chimeric antibody and the mouse antibody as the positive control were applied. Detection was with peroxidase conjugated goat anti-human IgG and sheep anti-mouse for chimeric and mouse antibodies respectively. Color was developed with OPD.
Both the chimeric and mouse antibodies provided increases in A₄₉₂ at all concentrations of antibodies when added to the solid-phase rsCD4. This assay confirmed that the cloned and sequenced heavy and light chain variable regions retained the correct recognition site.

[2] = target: T1, recombinant soluble CD4 (rsCD4); assay: ELISA on rsCD4
[3] = target: CD4 on the surface of host T cells (HIV receptor complex involving CD4) (UniProt P01730 26-458, limits assumed); assay: cell-based or functional assay

Binder	fold reduction in A492 compared to the original mouse antibody [1] [fold]	fold reduction in binding compared to the chimeric antibody [2] [fold]	Antibody Conc (µg/ml) at 50% Inhibition; MT-2 microplaque neutralization, HIV-1 TH036 (PBL), clade E [3] [µg/mL]	Antibody Conc (µg/ml) at 50% Inhibition; MT-2 microplaque neutralization, HIV-1 UG029 (PBL), clade A [3] [µg/mL]	Antibody Conc (µg/ml) at 50% Inhibition; MT-2 microplaque neutralization, HIV-1 VL135 (PBL), clade B [3] [µg/mL]
chimeric B4 antibody (antibody, human IgG1, V domains shown, Fully murine B4 variable regions joined to human IgG1 and human kappa constant regions; also called B4 chimeric antibody; chimeric antibody) VH: QVQLQQSGPELVKPGASVRMSCKASGYTFTDYVIHWVKQRTGQGLEWIGEIYPGSGSAYSNAKFKDKATLTADKSSNTAYMQLSSLTSEDSAVYFCARRGNGTGFAYWGQGTLVTVSA VL: DIVLTQSPASLAVSLGQRATISCKAGQSVDYDGDSYMNWYQQKPGQPPKLLIYVASNLESGIPARFSGSGSGTDFTLNIHPVEEEDAATYYCQQSYKDPLTFGAGTKLELK	10				
deimmunized B4 antibody DIVHv.4/VKv.3 produced by NS0 cells (antibody, human IgG1, V domains shown, Human IgG1 and human kappa constant regions; NS0 cells; also called DIVHv.4/V v.3) VH: QVQLVQSGAEVKKPGASVKVSCKASGYTFTDYVIHWVRQATGQGLEWIGEIYPGSGSAYSNSKFKDRVTITADKSTNTAYMELRSLRSDDTAVYFCARRGNGTGFAYWGQGTLVTVSS VL: DIVLTQSPASLAVSPGQRATITCKAGQSVDYDGDSYMNWYQQKPGQPPKLLIYVASNLESGIPSRFSGSGSGTDFTLTINPVEENDTATYYCQQSYKDPLAFGPGTKVEIK		5	0.63	1.1	0.48

Source: patent publication US20040137000A1 (UNITED BIOMEDICAL, published 2004)
